In PMC3878992 one finds Kd data, which are given here for three molecules.

Where two headings read alike, the source gives them in different places.

The target in test [1] is eIF4G1 (Saccharomyces cerevisiae) (UniProt P39935). To be noted: cited from earlier work.
Test [2] has as its target Cy5-eIF4E(A124C) (S. cerevisiae) (UniProt P07260). In words: single-molecule FRET.
The target is the same in test [3]. In words: single-molecule FRET. This is another data set of the same source.

With eIF4E (from UniProt P07260), the Kd in test [1] was below 15 nM.

B1: full-length eIF4G1 (natural protein)
chain: MTDETAHPTQSASKQESAALKQTGDDQQESQQQRGYTNYNNGSNYTQKKPYNSNRPHQQRGGKFGPNRYNNRGNYNGGGSFRGGHMGANSSNVPWTGYYNNYPVYYQPQQMAAAGSAPANPIPVEEKSPVPTKIEITTKSGEHLDLKEQHKAKLQSQERSTVSPQPESKLKETSDSTSTSTPTPTPSTNDSKASSEENISEAEKTRRNFIEQVKLRKAALEKKRKEQLEGSSGNNNIPMKTTPENVEEKGSDKPEVTEKTKPAEEKSAEPEVKQETPAEEGEQGEKGQIKEESTPKVLTFAERLKLKKQQKEREEKTEGKENKEVPVQEETKSAIESAPVPPSEQVKEETEVAETEQSNIDESATTPAIPTKSDEAEAEVEAEAGDAGTKIGLEAEIETTTDETDDGTNTVSHILNVLKDATPIEDVFSFNYPEGIEGPDIKYKKEHVKYTYGPTFLLQFKDKLNVKADAEWVQSTASKIVIPPGMGRGNRSRDSGRFGNNSSRGHDFRNTSVRNMDDRANSRTSSKRRSKRMNDDRRSNRSYTSRRDRERGSYRNEEKREDDKPKEEVAPLVPSANRWVPKFKSKKTEKKLAPDGKTELLDKDEVERKMKSLLNKLTLEMFDAISSEILAIANISVWETNGETLKAVIEQIFLKACDEPHWSSMYAQLCGKVVKELNPDITDETNEGKTGPKLVLHYLVARCHAEFDKGWTDKLPTNEDGTPLEPEMMSEEYYAAASAKRRGLGLVRFIGFLYRLNLLTGKMMFECFRRLMKDLTDSPSEETLESVVELLNTVGEQFETDSFRTGQATLEGSQLLDSLFGILDNIIQTAKISSRIKFKLIDIKELRHDKNWNSDKKDNGPKTIQQIHEEEERQRQLKNNSRSNSRRTNNSSNRHSFRRDAPPASKDSFITTRTYSQRNSQRAPPPKEEPAAPTSTATNMFSALMGESDDEE
In turn, B1 showed a Kd in test [2] of 20 nM.

B2: eIF4G1 eIF4E-binding domain (4EBD) flanked by additional eIF4G1 sequence (amino acids 348-513) (domain or fragment)
chain: EETEVAETEQSNIDESATTPAIPTKSDEAEAEVEAEAGDAGTKIGLEAEIETTTDETDDGTNTVSHILNVLKDATPIEDVFSFNYPEGIEGPDIKYKKEHVKYTYGPTFLLQFKDKLNVKADAEWVQSTASKIVIPPGMGRGNRSRDSGRFGNNSSRGHDFRNTSV
With B2, the Kd in test [3] turned out to be 20 nM; in test [2], 25 nM.

What is called Kd is the free concentration of one partner at which half of the binding sites on the other are occupied at equilibrium, for simple one-to-one binding.
